In general, Km refers to the substrate concentration at which the rate is half of its maximum. In general, kcat refers to the number of substrate molecules converted per active site and unit of time at saturation. Usually kcat/Km stands for the turnover number divided by the Michaelis constant.

These results are taken from article PMC10212915, “An ancient metabolite damage-repair system sustains photosynthesis in plants” (Nature Communications, 2023).

Holding throughout (assay): malachite green phosphate release assay
What all share (type): biochemical, Arabidopsis thaliana
Holding throughout (conditions): MOPS-KOH pH 7.5, 100 mM KCl, 10 mM MgCl2, 25 °C

Substrate in data set [1]: O=C(COP(=O)(O)O)[C@@H](O)[C@H](O)COP(=O)(O)O
From the text:
(§1) malachite green phosphate release assay on MBP-AtCbbYB

Substrate in data set [2]: O=C(COP(=O)(O)O)[C@H](O)[C@H](O)COP(=O)(O)O
From the text: as §1

Substrate in data set [3]: O=C(COP(=O)(O)O)[C@@H](O)[C@H](O)COP(=O)(O)O
From the text:
(§2) malachite green phosphate release assay on MBP-AtCbbYA
This is another data set of the same source.

Substrate in data set [4]: O=C(COP(=O)(O)O)[C@H](O)[C@H](O)COP(=O)(O)O
From the text: as §2
This is another data set of the same source.

B1: MBP-AtCbbYB (Arabidopsis thaliana) (protein)
chain: SKSRVSSPVSALPLRSLEALIFDCDGVILESENLHRQAYNDAFSHFDVRCPPSSSESLDWSLEFYDKFQNLVGGGKPKMRWYFKENGWPTSTIFDSPPQNDDDRAKLIDTLQDWKTERYKEIIKSGSVEPRPGVIRLMDEAKAAGKKLAVCSAATKSSVILCLENLIDIERFQGLDCFLAGDDVKEKKPDPSIYITAAEKLGVSVKDCLVVEDSVIGLQAATKAGMSCVITYTSSTSDQNFNDAIAVYPDLSNVKLKDLETLLQTIVTAA
Regarding B1, in data set [1], the Km worked out at 182 ± 30 µM, the kcat was found to be 0.54 ± 0.05 s⁻¹ and the kcat/Km was determined as 3000 M⁻¹ s⁻¹. In addition, in data set [2], the Michaelis-Menten constant (Km) was determined as 4840 ± 360 µM, the kcat worked out at 0.015 ± 0.002 s⁻¹ and the kcat/Km was 3.2 ± 0.4 M⁻¹ s⁻¹.

B2: MBP-AtCbbYA (Arabidopsis thaliana) (protein)
chain: CSASSSLTTLPSALLFDCDGVLVDTEKDGHRISFNDTFKERDLNVTWDVDLYGELLKIGGGKERMTAYFNKVGWPEKAPKDEAERKEFIAGLHKQKTELFMVLIEKKLLPLRPGVAKLVDQALTNGVKVAVCSTSNEKAVSAIVSCLLGPERAEKIKIFAGDVVPKKKPDPAIYNLAAETLGVDPSKCVVVEDSAIGLAAAKAAGMTCIVTKSGYTADEDFENADAVFDCIGDPPEERFDLAFCGSLLRKQFVS
On to B2, for which, in data set [3], the Km is 40 ± 1 µM, the kcat amounted to 2.13 ± 0.04 s⁻¹ and the kcat/Km is 53000 ± 2000 M⁻¹ s⁻¹. Besides, in data set [4], the Km was 4310 ± 110 µM, the kcat worked out at 0.043 ± 0.009 s⁻¹ and the kcat/Km worked out at 10 ± 2 M⁻¹ s⁻¹.
